According to paper PMC9820267:

Molecular target: PSD-95 (DLG4) (UniProt Q62108)
Assay: GST pull-down from cotransfected COS7 lysate
Settings: reference: wild type (treatment condition of comparison not stated); sites T585,T612

binding against the reference: weaker
Substance: PSD-93 (DLG2) PDZ3-SH3, 390-620 (from UniProt Q91XM9) T585A/T612A
